From US20230061804A1

Molecular target: mRFP1-ENLYFQS-(r8)8-Tail
Experiment: live imaging of co-transfected HaCATs; client signal inside against outside KG-like granules

Substance: sfGFP-dTEVP
- partition coefficient (P): 2.1
